Molecular target: T1, Ac-…-NH2 peptide (P. falciparum)
T1 sequence (peptide, N-terminal acetyl group; C-terminal NH2 group (amide)): NPNVDPNANPNV
Assay: ITC; MicroCal Auto-iTC200; triplicate (or duplicate) experiments; details in SI

B1: Fab317 (Fab, V domains shown)
VH: QMQLVESGGGVVQPGRSLRLSCTASGFTFSTYAMHWVRQSPGQGLQWVAVISYHSTNKYYEDSVRGRFTISRDNSKNTLYLQMNSLRAEDTAVYYCARDGYSSSFFDFWGQGTLVTVSS
VL: DIQMTQSPSTLSASVGDRVAITCRASQSISRWLAWYQQQPGKAPKLLMSGASVLESGVPSRFSGSGSGTEFTLTISSLQPDDFATYYCQHYNSYFVTFGQGTKVEIK
Kd: 12.1 µM
dH: -9.66 kcal/mol
stoichiometry N: 1.72

From paper PMC5715787, “Structural basis for antibody recognition of the NANP repeats in Plasmodium falciparum circumsporozoite protein” (Proceedings of the National Academy of Sciences of the …, 2017)
